These results are taken from patent US20220096654A1, “PYRROLOBENZODIAZEPINE-ANTIBODY CONJUGATES AND USES THEREOF” (ADC THERAPEUTICS SA, priority 2020, published 2022).

The test system of one series is human CD45+ OCIM1 cells. Description: Complement dependent cytotoxicity (51Cr release) assay. In kind it is cell-based. Particulars: 10 ug/ml antibody, 10% baby rabbit serum. As to the method:
1×10^6 human CD45+ OCIM1 cells in 100 uL of complete medium (RPMI 1640 plus 10% fetal calf serum) were radiolabelled with 100 μCi ^51Cr sodium chromate for 1 h at 37° C. followed by three washes with complete medium. Labelled cells were incubated at 5×10^4/mL in triplicate wells of a 96 well plate in presence of YTH24.5 alone, YTH54.12 alone or with both antibodies for 10 mins at room temperature before of addition of baby rabbit serum at a final concentration of 10%. A final concentration of 5% Triton X-100 was added to control wells of cells to determined maximum lysis. 50 uL of supernatant from each well was transferred into a white-walled plates containing 150 uL scintillation liquid in each well. Plates were read in a MicroBeta counter (Trilux) after overnight incubation. The percentage of specific lysis was calculated using the standard formula [(experimental−spontaneous release)/(maximum load-spontaneous release)×100] and expressed as the mean of triplicate samples.

Series [1] deals with human CD45+ cells. Description: Depletion of human CD45+ cells in humanised NSG mice. Type of series: in vivo. How it is done:
Adult female NSG mice were sublethally irradiated with 2.5 Gy on the day before transplantation (day −57). Cryopreserved purified CD34+ cells from mobilized peripheral blood from a normal donor were thawed and 0.5×10^6 cells in PBS were injected intravenously into the tail vein of mice (day −56). Human engraftment (human CD45+ cells) in the blood of mice was assessed at day −14 and day −1. Mice were assigned to treatment cohorts so that the median human CD45+ engraftment in the blood between the cohorts was as similar as possible. Mice were injected with 0.3 mg/kg or 1 mg/kg Mab or ADC intravenously via the tail vein. Blood samples were taken after 7 days and analysed by flow cytometry. The bone marrow, blood and spleen of mice were analysed at two weeks post-treatment.

The test system of a further series is human CD34+ cells. Description: Ex vivo treatment of CD34+ cells with Mab or ADC prior to engraftment in NSG mice. Particulars: CD34+ cells treated at 1 nM and 0.1 nM for 4 hours before transplantation; week 8. As to the method:
Adult female NSG mice were sublethally irradiated with 2.5 Gy on the day before transplantation. Cryopreserved purified CD34+ cells from mobilized peripheral blood from a normal donor were thawed and cultured in complete medium (RPMI 1640 plus 10% fetal calf serum) in presence of Mab, ADC or medium alone for 4 hours. Cells were washed in phosphate buffered saline (PBS) and 0.5×10^6 cells in PBS were injected intravenously into the tail vein of mice. Engraftment of transplanted human cells (hCD45+) in the bone marrow of mice was determined by flow cytometry at 8 weeks after transplantation.

Series [2] in a line: Dosimetry in non-humanised NSG mice. Type of series: in vivo. Particulars: 5 mg/kg i.v., non-humanised NSG mice, monitored 2 weeks. As to the method: For dosimetry in non-humanised NSG mice, adult NSG mice were injected intravenously via the tail vein with unconjugated Mab or ADC up to 5 mg/kg. Mice regularly monitored over a period of 2 weeks for any signs of morbidity. Mice were culled if rapid weight loss (>15%) occurred over a period of 2 days.

In another series the test system is target cells. Description: Live-imaging microscopy of antibody internalisation. In kind it is cell-based. Particulars: live-imaging microscopy (data not shown). The text has this: In particular, the lysosomal pathway can be important in providing an environment for cleavage of the antibody-drug linkers, hereby releasing the drug in the target cells for highly specific cell killing.

In series [3] the test system is luciferase expressing human CD45+ Jurkat cells. Description: Jurkat leukaemia model in NSG mice (bioluminescence, survival). Type of series: in vivo. Particulars: 1 mg/kg, day 16. How it is done:
Adult NSG mice were sublethally irradiated with 2 Gy on the day before injection of cells. 5×10^6 fire fly luciferase expressing Jurkat cells in PBS were injected intravenously into the tail vein of mice. On the following day PBS, MAbs or ADC were injected intravenously into the tail vein at a dose of 1 mg/kg. Mice were regularly monitored for signs of morbidity and weight loss for the duration of the experiment. For imaging, mice were injected intraperitoneally with 3 mg D-luciferin in PBS. Mice were initially anesthetized with 4% isoflurane and then maintained at 2% isoflurane. Ten minutes after injection of D-luciferin, mice were imaged inside a IVIS Lumina III (PerkinElmer). A sub-saturating image was captured using the auto-exposure setting in the Living Image software.

The next series concerns CD34+ PBSC (CD45+). Description: Clonogenic assay, CD34+ PBSC treated 2 h with Mab or ADC. Type of series: cell-based, human. As to conditions: MAbs in human IgG1-AAA or rat IgG2b format; Isotype control and Isotype control PBD rat IgG2b format only. How it is done:
Cryopreserved purified CD34+ cells from mobilized peripheral blood from three normal donors were thawed and cultured at […] complete medium (RPMI 1640 plus 10% fetal calf serum) in presence of Mab, ADC or medium alone for 2 hours in 96-well U-bottom plates. Cells were mixed and 40 uL was transferred to 2 ml of StemMACS HSC-CFU complete with Epo (Miltenyi Biotech) and mixed well. 0.5 ml (250 cells) was plated into triplicate into wells of a 24-well plate. Colonies were enumerated between 10-14 days. Data is mean of three donors±s.d.

Series [4] relates to fLuc+ OCIM1 cells. Description: Established AML model in NSG mice, treatment 10 days post-injection. Type of series: in vivo. How it is done:
(§1) NSG mice were transplanted with 7.5×10^6 fLuc+ OCIM1 cells i.v. At 10 days post-injection of AML cells, unconjugated antibody or ADCs were injected i.v. via a tail vein at a dose of 1 mg/kg or 5 mg/kg. Mice were regularly monitored for signs of morbidity for the duration of the experiment. For imaging, mice were injected intraperitoneally with 200 μl of 15 mg/mL D-luciferin (Regis Technologies) in PBS. Mice were subsequently anesthetized with 4% isoflurane and maintained at 2% isoflurane. Ten minutes after injection of D-luciferin, mice were placed with anterior side up inside a IVIS Lumina III (PerkinElmer). A sub-saturating image was captured using the auto-exposure setting in the Living Image software (v4.5). Quantification and preparation of images was also carried out using the same software.

The next series concerns Nalm6 (CD45-). Description: Cell viability assay 5 days (PrestoBlue), Nalm6. Type of series: cell-based, human. Particulars: rat IgG2b ADC, n=3. How it is done: (§2) OCIM1, Jurkat and Nalm6 cells were seeded at a final concentration of 1.275×10^4/mL and for 5 days in presence of rat IgG2b Mab or ADC or medium (in triplicate) in wells of flat bottom 96-well plates. 293T cells were seeded at 9.3×10^3 cells per 100 uL per well in flat bottom 96-well plates and allowed to adhere the plate for up to 24 hours. 293T cells were subsequently cultured with rat IgG2b Mabs or ADC or medium (in triplicate wells) as described above. PrestoBlue® Cell viability Reagent (Thermo Fisher Scientific) was added to each and incubated for up to 1.5 hours. Fluorescence intensity from each well was detected using a FLUOstar OPTIMA microplate reader (BMG Labtech). Data was plotted using Prism 8.0 and sigmoid dose-response non-linear regression was used to determine EC50 values. Data points are mean±s.d. for representative experiments.

The subject of series [5] is fLuc+ OCIM1 cells. Description: AML model in NSG mice, treatment the day after cell injection. Type of series: in vivo. Particulars: 1 mg/kg or 5 mg/kg i.v. the day after OCIM1 injection. How it is done:
as §1, with “7.5×10^6 luciferase expressing” for “7.5×10^6”, “On the following day,” for “At 10 days post-injection of AML cells,”, “rat IgG2b antibodies” for “antibody”

Series [6] deals with human CD45+ cells. Description: Allogeneic stem cell transplant model in humanized NSG mice, comparison of payloads. As to conditions: 5 mg/kg. In kind it is in vivo. As to the method:
Adult NSG mice (Charles River Laboratories) were sublethally irradiated with 2.5 Gy in a ^137Cs irradiator. On the following day, mice were injected with 0.5×10^6 freshly thawed cryopreserved human CD34+ cells from a health donor were injected via the tail vein in 150 μL PBS using a 29 gauge MicroFine Plus insulin syringe (BD). Engraftment of human cells in the blood was assessed periodically from 6 weeks after transplantation. At 10 weeks post-transplant, humanized NSG mice were assigned into cohorts with similar median human CD45+ cell engraftment in the blood, as determined by flow cytometry. Mice were injected with PBS or 1 mg/kg YTH24.5-B1. Sixteen 16 days after treatment, mice were transplanted with 0.5×10^6 GFP+CD34+ cells from another healthy donor. Irradiated NSG […] were also transplanted with the GFP+CD34+ from the allogeneic healthy donor as a control for engraftment of the GFP+CD34+ cells. 8 weeks after transplantation of GFP+ cells, mice were culled and blood, spleen and bone marrow taken for analysis by flow cytometry.
Experimental schedule is as previously described in example 16 but with the following modifications. Humanized NSG mice at 10 weeks post-transplant were injected with PBS or 1 mg/kg YTH24.5-B1, YTH54.12-B1, Isotype-B1, YTH24.5-B4 and Isotype-3376. Isotype-B2 and YTH24.5-B2 was given at a dose of 5 mg/kg. Transplantation of 0.5×10^6 GFP+CD34+ from an allogeneic human donor and analysis at 8 weeks post-transplant of GFP+ cells was carried out as previously described.

The test system of another series is 293T (CD45-). Description: Cell viability assay 5 days (PrestoBlue), 293T. Type of series: cell-based, human. As to conditions: rat IgG2b ADC, n=3. As to the method:
as §2

B1: YTH24.5 (antibody)
heavy: QVNLLQSGAALVKPGASVKLSCKASSYTFTDYYIHWVKQSHGKTLEWIGYINPKSGFTNYNEKFRRKATLTVDKSTNTAYMDISRLTSEDSATYYCTRRTGVIPMDAWGQGASVTVSSAQTTAPSVYPLAPGCGDTTSSTVTLGCLVKGYFPEPVTVTWNSGALSSDVHTFPAVLQSGLYTLTSSVTSSTWPSQTVTCNVAHPASSTKVDKKVERRNGGIGHKCPTCPTCHKCPVPELLGGPSVFIFPPKPKDILLISQNAKVTCVVVDVSEEEPDVQFSWFVNNVEVHTAQTQPREEQYNSTFRVVSALPIQHQDWMSGKEFKCKVNNKALPSPIEKTISKPKGLVRKPQVYVMGPPTEQLTEQTVSLTCLTSGFLPNDIGVEWTSNGHIEKNYKNTEPVMDSDGSFFMYSKLNVERSRWDSRAPFVCSVVHEGLHNHHVEKSISRPPGK
light: DVVMTQTPVSLSVSLGGQVSISCRSSQSFVSSDGNTYLNWYLQKPGQSPQLLIYKVSNRLSGVPDRFSGSGSGTDFTLKISRVEHDDLGVYYCGQASKIPLTFGSGTKLEIKRADAAPTVSIFPPSMEQLTSGGATVVCFVNNFYPRDISVKWKIDGSEQRDGVLDSVTDQDSKDSTYSMSSTLSLTKVEYERHNLYTCEVVHKTSSSPVVKSFNRNEC
B1: the “lytic activity on OCIM1 cells” value with human CD45+ OCIM1 cells is given as “showed lytic activity”. Also, the “Mean % hCD45 levels in blood, 1 week post-treatment” value is on record as 3.53% in the series on human CD45+ cells [1] (0.3 mg/kg i.v.) and 0.82% in the series with human CD45+ cells [1] (1 mg/kg i.v.). For the same molecule, the “Mean % hCD45 levels in blood, 2 weeks Post-treatment” value turned out to be 4.72% with human CD45+ cells [1] (0.3 mg/kg i.v.) and 3.92% with human CD45+ cells [1] (1 mg/kg i.v.). In the series on human CD45+ cells [1] (1 mg/kg, two week period), the “course of the levels of human CD45+ cells in blood” value is recorded as “transient reduction”. Moreover, the entries for the “Mean % hCD45 levels in blood, Pre-treatment” value in the series on human CD45+ cells [1] (group later dosed 0.3 mg/kg) and in the series on human CD45+ cells [1] (group later dosed 1 mg/kg) were 5.55% and 5.47%, respectively. In addition, the “engraftment of human CD45+ cells in the bone marrow of NSG mice” value in the series on human CD34+ cells is reported as “prevented engraftment”. Moreover, the “Comment (survival / culling)” value in [2] is recorded as “All alive at day 14”. In addition, the internalisation result in the series on target cells is given as “substantially internalised via a lysosomal pathway”. Moreover, the “bioluminescent signal of naked antibody group relative to the corresponding ADC group” value in series [3] came out at 100 fold. Further, in the series on CD34+ PBSC (CD45+), the “inhibition of colony formation” value is given as “do not inhibit colony formation”.

B2: YTH24.5-B2: rat IgG2b anti-CD45 antibody YTH24.5 conjugated to PBD drug-linker B2 (drawing 44) (conjugate)
heavy: QVNLLQSGAALVKPGASVKLSCKASSYTFTDYYIHWVKQSHGKTLEWIGYINPKSGFTNYNEKFRRKATLTVDKSTNTAYMDISRLTSEDSATYYCTRRTGVIPMDAWGQGASVTVSSAQTTAPSVYPLAPGCGDTTSSTVTLGCLVKGYFPEPVTVTWNSGALSSDVHTFPAVLQSGLYTLTSSVTSSTWPSQTVTCNVAHPASSTKVDKKVERRNGGIGHKCPTCPTCHKCPVPELLGGPSVFIFPPKPKDILLISQNAKVTCVVVDVSEEEPDVQFSWFVNNVEVHTAQTQPREEQYNSTFRVVSALPIQHQDWMSGKEFKCKVNNKALPSPIEKTISKPKGLVRKPQVYVMGPPTEQLTEQTVSLTCLTSGFLPNDIGVEWTSNGHIEKNYKNTEPVMDSDGSFFMYSKLNVERSRWDSRAPFVCSVVHEGLHNHHVEKSISRPPGK
light: DVVMTQTPVSLSVSLGGQVSISCRSSQSFVSSDGNTYLNWYLQKPGQSPQLLIYKVSNRLSGVPDRFSGSGSGTDFTLKISRVEHDDLGVYYCGQASKIPLTFGSGTKLEIKRADAAPTVSIFPPSMEQLTSGGATVVCFVNNFYPRDISVKWKIDGSEQRDGVLDSVTDQDSKDSTYSMSSTLSLTKVEYERHNLYTCEVVHKTSSSPVVKSFNRNEC
What is called EC50 is the concentration that produces a half-maximal response. Read a high EC50 as a need for much substance. Consider B2, for which, in the series on fLuc+ OCIM1 cells [4], the “period of tumor regression / low tumor signal” value was “shortest period of tumor regression” and the “time within which tumor signal increased again” value is no more than 10 days. In addition, the “mice alive at 60 days” value with fLuc+ OCIM1 cells [4] (cohorts of 5 mice, all tumor-bearing) is reported as 1/5. In the series on Nalm6 (CD45-), the EC50 was determined as 0.0301 nM. Further, the “tumor (bioluminescence) signal” value in the series with fLuc+ OCIM1 cells [5] is given as “Low/absent tumor signal”. In the series on human CD45+ cells [6], the “percentage GFP+ human CD34+ cells in the bone marrow (mean)” value is 72.14%. Also, the “mean % hCD45+ engraftment in the bone marrow” value with human CD45+ cells [6] (8 weeks after allogeneic GFP+ cells, PBS 14.12%) was 1.089%. Moreover, in the series with 293T (CD45-), the EC50 was greater than 6 nM.
